# Source: US6716960B2, “Mch3, a novel apoptotic protease, nucleic acids encoding and methods of use” (Idun Pharmaceuticals, Inc., priority 1995, dated 2004)
# Read-outs that look alike come from different tables or passages of the source.
# T1: Mch3α (Homo sapiens, UniProt P55210)
# T1 construct: This assay employs Mch3 polypeptide expressed in an active, processed form recombinantly in E. coli; becomes active following proteolytic cleavage into two subunits of approximately 17 kD (p17) and 12 kD (p12); GST (N, cleaved yes); made in house; host or cells: E. coli (DH5α), pGEX-2T; bacterial lysates
# T1 sequence (P55210 24-198 limits assumed): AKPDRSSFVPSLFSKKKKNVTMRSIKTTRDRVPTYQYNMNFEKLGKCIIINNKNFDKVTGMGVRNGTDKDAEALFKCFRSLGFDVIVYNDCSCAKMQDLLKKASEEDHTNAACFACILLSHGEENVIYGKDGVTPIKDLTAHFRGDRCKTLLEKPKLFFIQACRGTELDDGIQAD
# T1 sequence (P55210 207-303 limits assumed): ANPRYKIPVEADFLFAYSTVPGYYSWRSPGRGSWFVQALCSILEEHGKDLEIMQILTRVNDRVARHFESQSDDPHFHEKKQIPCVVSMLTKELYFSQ
# T2: CPP32 (Homo sapiens, UniProt P42574)
# T2 construct: CPP32 is cleaved at Asp28 and Asp175 to generate two polypeptides of molecular masses of 17 kDa (p17) and 12 kDa (p12); GST (N, cleaved yes); made in house; host or cells: E. coli; bacterial lysates
# T2 sequence (P42574 29-175 limits assumed): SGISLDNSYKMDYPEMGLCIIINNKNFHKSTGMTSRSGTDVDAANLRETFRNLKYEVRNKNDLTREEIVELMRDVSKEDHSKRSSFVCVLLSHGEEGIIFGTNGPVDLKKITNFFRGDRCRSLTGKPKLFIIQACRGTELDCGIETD
# T2 sequence (P42574 176-277 limits assumed): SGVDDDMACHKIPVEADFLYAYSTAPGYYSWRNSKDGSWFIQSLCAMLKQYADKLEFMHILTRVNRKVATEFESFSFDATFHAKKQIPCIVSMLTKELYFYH
# B1: truncated Mch3α (amino acids 1-198): truncated Mch3α that encodes only the p20 subunit (protein)
# chain: MADDQGCIEEQGVEDSANEDSVDAKPDRSSFVPSLFSKKKKNVTMRSIKTTRDRVPTYQYNMNFEKLGKCIIINNKNFDKVTGMGVRNGTDKDAEALFKCFRSLGFDVIVYNDCSCAKMQDLLKKASEEDHTNAACFACILLSHGEENVIYGKDGVTPIKDLTAHFRGDRCKTLLEKPKLFFIQACRGTELDDGIQAD
# B2: truncated Mch3α (amino acids 199-303): truncated Mch3α that encodes only the p12 subunit (protein)
# chain: SGPINDTDANPRYKIPVEADFLFAYSTVPGYYSWRSPGRGSWFVQALCSILEEHGKDLEIMQILTRVNDRVARHFESQSDDPHFHEKKQIPCVVSMLTKELYFSQ
# B3: Mch3α: full length apoptotic cysteine protease, 303 amino acids (SEQ ID NO: 2), expressed from recombinant baculovirus (protein)
# chain: MADDQGCIEEQGVEDSANEDSVDAKPDRSSFVPSLFSKKKKNVTMRSIKTTRDRVPTYQYNMNFEKLGKCIIINNKNFDKVTGMGVRNGTDKDAEALFKCFRSLGFDVIVYNDCSCAKMQDLLKKASEEDHTNAACFACILLSHGEENVIYGKDGVTPIKDLTAHFRGDRCKTLLEKPKLFFIQACRGTELDDGIQADSGPINDTDANPRYKIPVEADFLFAYSTVPGYYSWRSPGRGSWFVQALCSILEEHGKDLEIMQILTRVNDRVARHFESQSDDPHFHEKKQIPCVVSMLTKELYFSQ
# Tests used:
# Mch3α = biological target: T1, Mch3α; assay: Continuous fluorometric assay of recombinant Mch3α with DEVD-AMC substrate; type: biochemical
# Protocol: The kinetic properties of the bacterially expressed recombinant Mch3α and CPP32 were determined using the tetrapeptide substate DEVD-AMC in a continuous fluorometric assay. The DEVD-AMC substrate is the poly(ADP-ribose)polymerase (PARP) cleavage site P1-P4 tetrapeptide (Nicholson et al., Nature 376:37-43 (1995)). Briefly, activity of Mch3α and CPP32 was measured using bacterial lysates in ICE buffer (25 mM HEPES, 1 mM EDTA, 5 mM DTT, 0.10% CHAPS, 10% sucrose, pH 7.5) at room temperature (24-25° C.).
# CPP32 [1] = biological target: T2, CPP32; assay: Continuous fluorometric assay of recombinant CPP32 with DEVD-AMC substrate; type: biochemical; details: for Km: recombinant CPP32, bacterial lysate, ICE buffer pH 7.5, 24-25° C., substrate = label
# CPP32 [2] = biological target: T2, CPP32; details: purified human CPP32, reported by Nicholson et al.; cited from earlier work
# Sf9 cells = assay: Induction of apoptosis in Sf9 cells infected with recombinant baculoviruses; details: for Induction of apoptosis: expressed separately in Sf9 cells
molecule,measurement,setting,value
"CC(=O)N[C@@H](CC(=O)O)C(=O)N[C@@H](CCC(=O)O)C(=O)N[C@H](C(=O)N[C@H](C=O)CC(=O)O)C(C)C [DEVDaldehyde, DEVD-CHO]",Ki,Mch3α,0.0018 µM
"CC(=O)N[C@@H](Cc1ccc(O)cc1)C(=O)N[C@H](C(=O)N[C@@H](C)C(=O)N[C@H](C=O)CC(=O)O)C(C)C [YVADaldehyde, YVAD-CHO]",Ki,Mch3α,> 10 µM
same,Ki,CPP32 [1],8.5 µM
DEVD-AMC [DEVDamc],Km,"Mch3α; bacterial lysate, ICE buffer pH 7.5, 24-25° C., substrate = label",51 µM
same,Km,CPP32 [1],13 µM
same,Km,CPP32 [2],9.7 ± 1 µM
YVADamc: YVAD tetrapeptide amc substrate listed in Table I,Km,CPP32 [1],> 500 µM
B1,Induction of apoptosis,Sf9 cells,unable to induce apoptosis
B2,Induction of apoptosis,Sf9 cells,unable to induce apoptosis
B3,Cells undergoing apoptosis,"Sf9 cells; expression in Sf9 cells, 42-48 h postinfection",approximately 50%
